Substitutions are numbered along the chain they refer to. Names and notes keep the numbering of the source.
T1: FLAG-tagged CARD-10 (human, UniProt Q9BWT7 1-1032)
T1 construct: Expressed in 293T cells; also called FLAG-CARD-10
T1 sequence: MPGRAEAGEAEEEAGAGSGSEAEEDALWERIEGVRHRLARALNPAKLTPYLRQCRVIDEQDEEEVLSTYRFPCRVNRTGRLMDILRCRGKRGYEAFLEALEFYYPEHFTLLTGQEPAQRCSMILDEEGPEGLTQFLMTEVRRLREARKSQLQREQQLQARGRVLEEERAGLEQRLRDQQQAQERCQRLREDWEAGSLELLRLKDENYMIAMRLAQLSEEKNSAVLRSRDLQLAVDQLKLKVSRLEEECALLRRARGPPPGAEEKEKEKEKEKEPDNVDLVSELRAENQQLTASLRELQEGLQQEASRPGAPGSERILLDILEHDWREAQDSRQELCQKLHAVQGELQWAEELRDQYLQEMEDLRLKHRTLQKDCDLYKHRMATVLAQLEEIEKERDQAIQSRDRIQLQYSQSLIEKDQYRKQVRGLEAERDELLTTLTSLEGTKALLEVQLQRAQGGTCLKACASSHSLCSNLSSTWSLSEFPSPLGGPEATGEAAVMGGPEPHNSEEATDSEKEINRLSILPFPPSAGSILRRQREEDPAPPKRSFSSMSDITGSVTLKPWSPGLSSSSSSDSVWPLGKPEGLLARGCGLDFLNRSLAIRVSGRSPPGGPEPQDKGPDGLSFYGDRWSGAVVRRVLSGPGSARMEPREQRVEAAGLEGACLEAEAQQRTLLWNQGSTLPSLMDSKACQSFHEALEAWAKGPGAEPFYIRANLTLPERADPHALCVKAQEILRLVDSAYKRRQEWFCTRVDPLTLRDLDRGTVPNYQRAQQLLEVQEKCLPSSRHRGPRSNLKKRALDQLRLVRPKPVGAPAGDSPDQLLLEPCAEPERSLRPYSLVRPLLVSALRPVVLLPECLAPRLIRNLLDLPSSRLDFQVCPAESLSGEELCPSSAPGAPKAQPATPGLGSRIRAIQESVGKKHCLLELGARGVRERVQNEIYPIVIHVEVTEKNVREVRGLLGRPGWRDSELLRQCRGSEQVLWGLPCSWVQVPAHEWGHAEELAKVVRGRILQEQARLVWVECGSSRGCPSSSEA

T2: FLAG-CARD10/ΔCARD (human, UniProt Q9BWT7 131-1032)
T2 construct: also called CARD-10 truncation mutant lacking its CARD domain
T2 sequence: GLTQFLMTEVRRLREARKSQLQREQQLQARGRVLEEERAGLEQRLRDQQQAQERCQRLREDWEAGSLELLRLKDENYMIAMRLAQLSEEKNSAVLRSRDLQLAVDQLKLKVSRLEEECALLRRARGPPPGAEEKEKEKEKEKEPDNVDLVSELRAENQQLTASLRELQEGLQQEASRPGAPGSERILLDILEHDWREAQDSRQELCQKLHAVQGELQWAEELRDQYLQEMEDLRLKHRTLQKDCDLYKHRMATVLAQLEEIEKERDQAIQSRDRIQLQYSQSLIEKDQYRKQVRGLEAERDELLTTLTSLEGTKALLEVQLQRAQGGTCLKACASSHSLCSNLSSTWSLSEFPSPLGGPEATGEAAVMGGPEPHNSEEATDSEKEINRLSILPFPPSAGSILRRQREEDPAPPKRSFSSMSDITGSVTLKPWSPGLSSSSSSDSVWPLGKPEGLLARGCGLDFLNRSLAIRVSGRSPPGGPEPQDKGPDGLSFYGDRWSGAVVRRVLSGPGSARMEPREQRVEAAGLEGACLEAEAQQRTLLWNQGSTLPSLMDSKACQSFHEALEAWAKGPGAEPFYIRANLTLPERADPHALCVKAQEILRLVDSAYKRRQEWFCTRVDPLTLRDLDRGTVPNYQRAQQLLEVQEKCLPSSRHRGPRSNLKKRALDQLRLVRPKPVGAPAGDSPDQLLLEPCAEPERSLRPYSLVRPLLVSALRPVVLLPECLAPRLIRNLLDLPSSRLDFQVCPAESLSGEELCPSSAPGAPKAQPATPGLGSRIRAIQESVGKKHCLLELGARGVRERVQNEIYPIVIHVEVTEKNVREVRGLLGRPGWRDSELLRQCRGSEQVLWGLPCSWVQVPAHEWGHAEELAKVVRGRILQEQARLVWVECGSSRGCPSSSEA

B1: variant Bcl-10 with a point mutation (L41R) (other, UniProt O95999 1-233, looked up)
chain: MEPTAPSLTEEDLTEVKKDALENLRVYLCEKIIAERHFDHRRAKKILSREDTEEISCRTSSRKRAGKLLDYLQENPKGLDTLVESIRREKTQNFLIQKITDEVLKLRNIKLEHLKGLKCSSCEPFPDGATNNLSRSNSDESNFSEKLRASTVMYHPEGESSTTPFFSTNSSLNLPVLEVGRTENTIFSSTTLPRPGDPGAPPLPPDLQLEEEGTCANSSEMFLPLRSRTVSRQ
notes: also called Bcl-10 L41R mutant
B2: endogenous Bcl-10 (other, human, UniProt O95999 1-233, looked up)
chain: B1 chain with R41L
notes: Endogenous protein in cell extracts

What was measured:
FLAG-tagged CARD-10 = biological target: T1, FLAG-tagged CARD-10; assay: co-immunoprecipitation from transfected 293T cells
FLAG-CARD10/ΔCARD [1] = biological target: T2, FLAG-CARD10/ΔCARD; assay: co-immunoprecipitation from transfected 293T cells
FLAG-CARD10/ΔCARD [2] = biological target: T2, FLAG-CARD10/ΔCARD; assay: co-immunoprecipitation with anti-Bcl-10 antibodies, anti-FLAG blot

Row | Binder | binding result (FLAG-tagged CARD-10) | binding result (FLAG-CARD10/ΔCARD [1]) | binding result (FLAG-CARD10/ΔCARD [2])
1 | B1 | no binding | no binding | –
2 | B2 | – | – | no binding

From patent US20030113787A1 (Takeda / Millennium, published 2003)
